The term Kd denotes a measure of binding affinity in units of concentration. Read a low Kd as a tighter complex.

The values below come from publication PMC8816810.

The target of the assay is AMdnB (Anabaena sp. PCC 7120). The experiment in a line: ITC. In general terms: In ITC the heat of successive injections is recorded.

MPENRQEDLNAQAVPFFARFLEGQ [AMdnA_(1–24) peptide (truncated AMdnA LP)]: the dissociation constant (Kd) was found to be 12.3 µM.
